In a protein production outcome set (Wang et al. 2014):

Test: label from the status in PepcDB records

Sequence | protein production
MNTYKKIFYFSTILFFYSGFSYAQNINLLLRKGNTCYRKGQYKNAAPYYDQVLKTDPENIQALYKSGVCNLFRYSKEQALINFEKVLQKDSSYDKYLYYWLGRANQLNFNFDQADFFYTAFQQKTSKNKIQYKEADRYKYQLKCARNFVANPANYKIQNLGAAVNSSFSDHSPVVSYTDTLLFFTSRRVTNTEAKEEHDGEPFEDIFYSYRNSTGEWSKPELFHLNTSGHDATIQLFDNDTKIFIYSYLHDGDILLAHKNAGTWSTPVPVKEINSADFESDAFMTADGKTLYYATNHFKKNGDLDICFITKKDDNTWSKPQTLSSLINTDEDEDAPYISADGKTMYFSSRGHTSMGGYDIFKSELDSVTGQWQKPVNLGYPVNTPDEDLYFCLSAKTKRAFMSSYRTGGFGEKDIYEIIPVKNIQLLGSVMKGDTSTPFPNVTMQYIPMAGAMKGAQKTQVNTLADGTYTTELLSDNAYLVYISQGKDTLLKDTLVLPLNEFDHYVYKQLYILNIHDTAAVKDSVIHKVTDTIKTIAAAEIAKTVYFESNRADLNAEAKTELNQLGIYLDTHKEANVYISGHADALGSAAINNALSQKRAQAAAVYLKAKGISAARIKVESFGSEKPVETNATVEGRAKNRRVQIVVK | failed
MLKRLWQIFGPVICALVLVVVVIYAYPQGRKYSYEAEKRSAVTLTNENFKSRKNKTTALSDQNHRFVPYFGSSEWLRFDALHPAVLAEKYDRNYRPYFIGQRGSASLNQYLGMQQMLPELQNGTAVYVLSPQWFTKKGYNSAAFQQFFNNDQLSSFLSQNQTDANSQYAAKRILEMKPEITMKSQLSKVAKGQDLNTVDKTYIQFMAELNRREDSLFSPLAASNNANYDKKVLPYLKELPDQFSYDALDQLAVRDAEAHTKSNDFGIDDRFYKERLSKKIGKLKGFQKNLSYEVSQEYGDLQLVLNQFAKSNTNVIFVIPPVNSKWMAYTGLNQDMYDATVSKIRYQLESQGFTNIADFSKDGDQPYFMQDTIHMGWKGWVAFDRVVNSFVSNPTPAPSYKLNDRFYSKDWSGYTGTPSQFKLEHHHHHH | not failed
MKAKEVSLVALFVALTSVGAQISVSIGPVPLTLQVFFVILAGLVLGPKLGFLSILIYDILGALGIPVFAGFSGGIAHILGPTGGYIIAFPIATFIAGLGRGKVRYLTSLMGLLVIYLIGWMWLARFVGFNKAFILGVLPFIVPDIVKAATAVIIAERLQGNT | failed
MSGSKTSAEKKESETEKSSDIAQVKIKDVSYTLPSKYDKSTSDDQLVLKVNVAVKNTGKDPLNVDSMDFTLYQGDTKMSDTDPEDYSEKLQGSTINADKSVEGNLFFVVDKGKQYELNYTPESYGDKKPKSVTFKIDGKDKKILATADKLQDSAKALSAYVDVLLFGKDNADFEKITGANKNEIVNDFNESAKDGYLSASGLSSTYADSKALDNIVNGIKEGLSKNSSIQAKTTSISKDEAIVEATVKPVDASSLSDRIEDKVKDYYSKNSSASYEEAVKYALQVYPEEFKKLGPASSEKTVEVKMKKNDIDQWQLDMDDYRAAELVEAFIKELEHHHHHH | not failed
MTRPYSLTRYAWLSIFVAIFTMAVKAAAYRVTGSVGLLSDALESIVNLSAAVVALAMLRLSAQPADARHHFGHGKAEYFASGFEGVLILVAAGAILFAAWDRYLHPHELAELDLGLGLSVAAAVVNGLVGWLLVSVGRKAGSIVLEADGKHLLTDVWTSIGVVCGVAAAGLTGWHDFDPGVAALVGLNIVWTGAGLIRRTIAGLLDASLPLEENLKIRGILETFRERGVGFHDLRTRQSGAHRFMSVHLLVPGAWTVQAAHDLAEEIEAELGGALANLTVVTHIEPIEDPASFGHHEPFPETAPEVTNPHPPQTARPLRLKIASVAGAALLLGGGVAGVVVSGVWLDLALAAVLFGFVLILAVQRRGGRQRKAGRQ | failed
MNLVKFTLDKANSQAYSSEQTTTEVSNMTIENGVRVLAGSMVLLSVILTWFVHPNFLWLTVFVGVNLIQSAFTGFCPAAFFLKKLGLR | failed
MRNLKLRYCKELNAVAHPQHLLLQPELNGGASDIYFVVADNKIYAVQESGDVRLKVIADLPDIVGVEFLQLDNAICVASGAGEVILVDPQTGATSEGTFCDVGIESMAWSPNQEVVAFVTRTHNVVLMTSTFDVIAEQPLDAELDPDQQFVNVGWGKKETQFHGSEGKQAAKQKESDSTFIRDEQELNQDVSISWRGDGEFFVVSYVAAQLGRTFKVYDSEGKLNHTAEKSANLKDSVVWRPTGNWIAVPQQFPNKSTIALFEKNGLRHRELVLPFDLQEEPVVQLRWSEDSDILAIRTCAKEEQRVYLYTIGNYHWYLKQVLIFEQADPLALLHWDTRCGAEHTLHVLKESGKHLVYRWAFAVDRNNSIVGVIDGKRLLLTDFDEAIVPPPMSKIVLKFETYINAFISHGTSLWVYTCDRKIYLNEHIHTLGKELQKPIMLMPDAELSGLHLANLTHFSPHYLLATHSSAGSTRLLLLSYKDNDNKPGEWFYRVHSSVRINGLVNAVAVAPYAMNEFYVQTVNNGHTYEVSLKADKTLKVERSYVQLHEPADQIDWVIVKGCIWDGYTGALVTLRNQHLLHIDGYRIGEDVTSFCVVTNYLVYTQLNAMHFVQLDDRRQVASRNIERGAKIVTAVARKARVVLQLPRGNLEAICPRVLVLELVGDLLERGKYQKAIEMSRKQRINLNIIFDHDVKRFVSSVGAFLNDINEPQWLCLFLSELQNEDFTKGMYSSNYDASKQTYPSDYRVDQKVEYVCRLLEQQMNRFVSRFRLPLITAYVKLGCLEMALQVIWKEQQEDASLADQLLQHLLYLVDVNDLYNVALGTYDFGLVLFVAQKSQKDPKEFLPYLNDLKALPIDYRKFRIDDHLKRYTSALSHLAACGEQHYEEALEYIRKHGLYTDGLAFYREHIEFQKNIYVAYADHLRAIAKLDNASLMYERGGQLQQALLSAKHTLDWQRVLVLAKKLSEPLDQVAQSLVGPLQQQGRHMEAYELVKEHCQDRKRQFDVLLEGHLYSRAIYEAGLEDDDVSEKIAPALLAYGVQLESSLQADLQLFLDYKQRLLDIRRNQAKSGEGYIDTDVNLKEVDLLSDTTSLHSSQYSGTSRRTGKTFRSSKNRRKHERKLFSLKPGNPFEDIALIDALHNHVTKIAQQQQPVRDTCKALLQLANAADADPLAAALQREFKTLLQAVDAALDEIWTPELRGNGLMADHLTGPNVDYLALQKEQRYALLSPLKRFKPQLIMMDWQHEILQ | failed
MEYALLQHYWWFLVSLLGALLVFLLFVQGGQSFLFSLGKDELTQKMMVNSTGRKWEFTFTTLVTFGGALFASFPLFYSTSFGGAYWVWMLILFCFIIQAVSYEYQSKHGNVWGRKTYQILLFINGVLAPVLLGTAVSTFFTGSSFVVNKMAMFDLSGGNQIVSAWQPFNGWQLRGLEAVLNLWNVVLGLAVFFLARVSALLYFINNIDDESLYAAAKRRLWANTVAFLIFFLAYIAFLLTTEGFAVNPVSKEVYMEPYKYLYNFLDMPAVLAVFLLGVILVLGGIGLTLLRKGFKRGIWLHGTGTVLTVLALLLVAGWNDTSWYPSTYDLQSSLTIENASSSHFTLKVMSYVSLLIPFVLAYIFYAWRALDIRKITKKEMEQDDHVY | failed
MRVMAFVQARMGSTRLPGKSLMPVWNGMGVLEMTLRRALRARTLSGVVLCTSTDPACDALETLASGLGVQAFRGPEDDVLTRYALATERFEPDAVVRICADSPLVCPEGIDALVAFFRDEGLDYAAHAMDGTGLPDGLGCEVFTAAALAQAHAEATAPEDREHVSLFIRHRPERFRQATLAADAALRAPGVSLDVDTQDDLDALRRFIMALPPSEGPFWSADAIAPLARGLHTPPQGTSMDIASDDYHDFFIRDGKLIGEFEQMYRKSRHAPWHQDEACDKWFNKVSAALVGHALDDPSVRTVFEVGSGLGYFLSQFAGEGRTLTGTDVSATAVEKARALFPGISFEVDDIRFEGRRGPYDLCLMQAVCWCIFPHMDDVVRNVTATVRPGGYLFLGECFQPLDGPFAGKDVIPTPDALIGHFSHAFDTVADVRVTRGEMGGGPIIYWLGRRRGLEHHHHHH | not failed
MMQDISIFLAFGAGFLSFISPCCLPLYPAFLSYITGMSVSELKEENAMLRKRSMIHTAFFLLGFSIIFIAIGFGTSFIGGIFTDYKDLIRQLGGIFIIVFGLIIVGVFKPKFLMQDRKFTFKNRPSGYFGSVLIGLAFAAGWTPCTGPILVSVIGLAATNPESAMIYMIAYILGFAIPFFVLSFFITKMSWIKRNSMAFMKVGGYIMIVMGVFLYFNWMTKIIVYFSSLFGGFTGF | failed
MSSTKLIVLKSKELIYTAILLALIVVFVIILINMFKRNDKSDGSQSGPAKAVSAPADPGTGIYNTRYTPGTYSSPLILGENTLSVIVTVDDCQITDVSFQQMGETITTMYPLLESSLEDINTQLHYISSVDDIIPSGDSTYTTKLIIDSIKNALKEAVVN | failed
MLNEIVVFFSILVSSWNIYNSALSFYGLTWRVNQKIEYSDKTFSILVPAKNEEKVLGRLLDRLINQEYDKSKYEIIVVEDGSTDRTFQICKNYEENYDNVRCVKLDKSNVPNGKSRALNYAMKLAKFDIIGVFDADTFPRLDVLSYVSGSFDSDNVVAVQGKLIPINVRESIIARFASLEELFNEYSIGGRARFGLFVPLEGTCTFVKKSIIEEMGGWNEYSLTEDLDLSVKLTSAGYKIMYNPNVVAWREVASSLRWLIKQRLRWYRGHFEISLSMPKKIDPRIFDGILLIGTPIFMLMNLVNYSLVLIYQTPLFVVTMVIVSTATLLSFITAVGISRKHLIEYQYSILSLIYMNFVMLLNVTAVFLEIVRVPRVWIKTERSGKISVPEV | failed
MMKSLGSIRRSFAPWADPASKPFISVKNVTKKFGDFTAVDDLSLNIYTREFFALLGASGCGKSTLLRMLAGFEQPTSGEIILDGQSLAGIPPYRRPVNMMFQSYALFPHMTVENNVAFGLKQDGMPKADIAERVAQMLKLVKLEKFAKRKPHQLSGGQRQRVALARSLAKRPKVLLLDEPLGALDKKLREETQFELMDLQQELGLTFVVVTHDQEEAMTMADRIAVMSHGKVVQVATPAEIYEAPNSRFVADFIGDVNIFDGKVTSAEDGYIRVETTGGIPVRMASPEKPGNGAKAAVAIRPEKIRIGRQPPAHAPVNAAEGEIWDIGYLGDMTVFHIRLKDGKVVKASSLNAVRAVEDPLGYDQQVWISFGDDAGVVLKD | failed
NNLFVYCEIEEGIVADVSLELLTKGRSLANELNCQLEAVVAGTGLKEIEKQILPYGVDKLHVFDAEGLYPYTSLPHTSILVNLFKEEQPQICLMGATVIGRDLGPRVSSALTSGLTADCTSLEIGDHEDKKEGKVYKNLLYQIRPAFGGNIVATIVNPEHRPQMATVREGVMKKEIVSPAYQGEVIRHDVKKYVADTDYVVKVIERHVEKAKNN | not failed
PPLPLVYERIMLKGKGAMHSSTGLAIPASEIIDVMPPELLRFLIARVNPSRHIDFDP | failed
ERLILCSPYFIPDESLLEAVTSACYRGVTVELFVSEQADQFAIDHAQSSYYQALLEAGVKIYQFPKPDVLHTKYMIADPDDTTGNEALGVLGSSNLDIRSFGLNYEISLMIAKGNLIHELNALTDRYRTVSFKLTLDKWNQR | failed
MMNTPESRLVAAGLELPEVAAALGNYEPYSIVGSQLMTSGQFPYLQGKLLYQGQLGADYTVSEGYAACRLATLNAIAQLKQACGELSRIKQIYRLEGVLNVHQSCIEHPKALDGASDLLLEIFGEAGRHSRMIWTNPVMPLNSLCLVYLFAEL | not failed
QDSDSTAAVAVLKRAVELDAESRYQQALVCYQEGIDMLLQVLKGTKESSKRCVLRTKISGYMDRAENIKKYLDQEKEDGK | not failed
